Source: patent US20050032689A1, “Methods for treatment or diagnosis of disease or disorders associated with an APB domain” (New York University, priority 1994, published 2005)
Entries after “also recorded” stand apart in the source; their conditions may differ.

Columns and labels:
[1] = test system: HER2/neu (HER1/2 chimera); experiment: Binding of GST-Shc fusion proteins to HER1/2 chimera from NIH 3T3 lysates, anti-phosphotyrosine blot; conditions: EGF-stimulated NIH 3T3 lysates
Method: (§1) FIGS. 4A, 4B, 4C and 4D. Binding of Shc fragments to growth factor receptors. A, schematic diagram illustrating the Shc fragments used in binding studies. Full length murine p52^shc is indicated in (i) while (ii)-(vi) were generated as GST fusion proteins for use in receptor binding studies. B, association of various GST fusion proteins with activated EGF receptor (EGFR). Binding was performed as in FIG. 2A with the exception that all lysates were stimulated with EGF. All studies used 3 μg of fusion proteins except for the Shc SH2 where 10 μg was used. Immunoblotting was performed with anti-phosphotyrosine. C, binding of Shc fusion proteins to NIH 3T3 cells expressing a HER1/2 chimera. This chimera consists of the EGF receptor extracellular binding domain and the intracellular region of HER2/neu. After stimulation of these cells with EGF (200 ng/ml) lysates were prepared and binding as well as blotting studies were performed as in B using anti-phosphotyrosine antibody. D, binding of Shc 1-209 to TrkA. Beads containing 10 μg of GST fusion proteins Shc 1-209, phospholipase C-γ (PLC-γ) SH2 (contains both N and C SH2 domains), or GST alone were added to lysates from 2×10^7 PC12 cells stimulated with 50 ng/ml nerve growth factor (lanes 1, 2, and 4). The binding of the same amount of lysate to 2 μg of anti-TrkA antibody is shown as a positive control and to indicate the position of TrkA on the blot (lane 3). Otherwise, the binding and blotting were performed as in B using anti-phosphotyrosine antibody. […] Protein concentration was determined by SDS-PAGE (polyacrylamide gel electrophoresis) using bovine serum albumin as a standard. […]

TrkA = target: T1, TrkA (Rattus norvegicus, UniProt P35739); experiment: Binding of GST fusion proteins to TrkA from nerve growth factor stimulated PC12 cell lysates; conditions: 10 μg GST fusion protein, PC12 lysates stimulated with nerve growth factor
T1 construct: lysates from 2×10^7 PC12 cells stimulated with 50 ng/ml nerve growth factor; endogenous in cells; host or cells: PC12
Method: as §1, with “4).” for “4). The binding of the same amount of lysate to 2 μg of anti-TrkA antibody is shown as a positive control and to indicate the position of TrkA on the blot (lane 3). Otherwise, the binding and blotting were performed as in B using anti-phosphotyrosine antibody.”

T1 sequence (P35739 33-799): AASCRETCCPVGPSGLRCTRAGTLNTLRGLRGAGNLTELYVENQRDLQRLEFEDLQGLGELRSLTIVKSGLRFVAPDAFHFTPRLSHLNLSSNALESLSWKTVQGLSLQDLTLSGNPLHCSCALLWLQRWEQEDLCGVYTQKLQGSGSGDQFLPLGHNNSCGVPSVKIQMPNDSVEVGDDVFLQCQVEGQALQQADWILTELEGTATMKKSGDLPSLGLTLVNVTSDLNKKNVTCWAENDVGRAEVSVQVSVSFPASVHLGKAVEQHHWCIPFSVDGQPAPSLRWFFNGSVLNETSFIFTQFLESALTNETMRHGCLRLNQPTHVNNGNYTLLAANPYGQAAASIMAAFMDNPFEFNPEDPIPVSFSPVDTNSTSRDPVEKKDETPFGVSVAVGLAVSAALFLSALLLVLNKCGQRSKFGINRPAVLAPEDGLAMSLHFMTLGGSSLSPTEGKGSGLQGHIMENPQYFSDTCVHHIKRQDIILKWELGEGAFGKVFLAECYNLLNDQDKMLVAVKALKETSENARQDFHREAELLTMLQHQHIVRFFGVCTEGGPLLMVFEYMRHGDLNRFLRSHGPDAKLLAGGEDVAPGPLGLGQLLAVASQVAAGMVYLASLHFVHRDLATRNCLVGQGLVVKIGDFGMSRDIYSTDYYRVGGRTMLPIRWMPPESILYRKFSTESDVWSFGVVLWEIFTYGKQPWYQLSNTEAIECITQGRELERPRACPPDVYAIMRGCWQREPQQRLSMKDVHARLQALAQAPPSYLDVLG

B1: Shc 1-209: Shc amino terminus, first 209 amino acids of murine p52Shc, generated as a GST fusion protein (protein, UniProt P98083 1-209, looked up, fragment)
chain: MDLLPPKPKYNPLRNESLSSLEEGASGSTPPEELPSPSASSLGPILPPLPGDDSPTTLCSFFPRMSNLKLANPAGGRLGPKGEPGKAAEDGEGSAGAALRDSGLLPLLQDMNKLSGGGGRRTRVEGGQLGGEEWTRHGSFVNKPTRGWLHPNDKVMGPGVSYLVRYMGCVEVLQSMRALDFNTRTQVTREAISLVCEAVPGAKGATRRR
modifications: GST fusion
notes: Shc amino terminus, first 209 amino acids of murine p52Shc, generated as a GST fusion protein
[1]
  binding to HER2/neu: bound to HER2/neu
TrkA
  binding to TrkA: bound to HER2/neu and TrkA; also recorded: bind in a similar fashion to that seen with the SH2 domain of phospholipase C-λ
